For two substances, ligand-dependent change in transcription, C7-Cf2 TATA luciferase reporter, luciferase assay, erbB-2 promoter activity in HeLa cells, with Tamoxifen and tamoxifen-dependent activation of the erbB-2 promoter (luciferase) results are on record in patent publication US20080318839A1.

One test has as its target Cf2-PBD-VP64 (human) (UniProt P06401). As to the kind of experiment: cell-based or functional assay.
A further test has as its target ER-VP64 (mouse) (UniProt P19785). As to the kind of experiment: cell-based or functional assay.

Sequence of ER-VP64 (mouse) (P19785 282-599 G525R): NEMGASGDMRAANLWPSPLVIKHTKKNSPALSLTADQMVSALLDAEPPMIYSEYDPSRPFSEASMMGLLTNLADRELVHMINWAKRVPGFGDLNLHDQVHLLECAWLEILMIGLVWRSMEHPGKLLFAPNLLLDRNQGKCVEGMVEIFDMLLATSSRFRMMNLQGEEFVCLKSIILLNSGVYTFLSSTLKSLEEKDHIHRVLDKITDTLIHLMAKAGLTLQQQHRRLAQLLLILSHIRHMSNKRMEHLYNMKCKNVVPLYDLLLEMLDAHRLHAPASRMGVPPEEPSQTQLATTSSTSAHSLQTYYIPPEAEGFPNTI
Sequence of Cf2-PBD-VP64 (human) (P06401 640-914): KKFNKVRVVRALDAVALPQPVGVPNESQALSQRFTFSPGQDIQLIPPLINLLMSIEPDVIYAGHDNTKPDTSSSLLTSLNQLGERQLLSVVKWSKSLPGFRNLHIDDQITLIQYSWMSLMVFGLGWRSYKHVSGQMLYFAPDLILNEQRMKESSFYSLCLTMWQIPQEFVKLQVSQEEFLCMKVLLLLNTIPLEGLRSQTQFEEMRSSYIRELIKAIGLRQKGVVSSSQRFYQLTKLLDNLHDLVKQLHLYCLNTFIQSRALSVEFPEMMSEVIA
Sequence of C7-PBD-VP64 (P06401 640-914): as above

“C7-PBD-VP64 (from UniProt P06401 640-914)” had a ligand-dependent change in transcription, C7-Cf2 TATA luciferase reporter with Cf2-PBD-VP64 (human) of 2 fold.
As for E2C-ER (from UniProt P19785 282-599), in the test with ER-VP64 (mouse), the luciferase assay, erbB-2 promoter activity in HeLa cells, with Tamoxifen came to 3 fold and the tamoxifen-dependent activation of the erbB-2 promoter (luciferase) came to 5.3 fold.
